Reference: publication PMC9482650, “Quantitative fragmentomics allow affinity mapping of interactomes” (Nature Communications, 2022)
Changes are numbered by the printed parent chain.

B1: SCN5A, Q14524 (peptide)
chain: SPDRDRESIV

Molecular target: T1, APBA2_1, Q99767
T1 sequence (Q99767 563-664, limits assumed, looked up): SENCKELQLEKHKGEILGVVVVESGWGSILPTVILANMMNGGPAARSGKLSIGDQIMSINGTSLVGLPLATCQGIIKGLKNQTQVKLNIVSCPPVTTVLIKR
Experiment: holdup assay
Design: key: below the threshold = too weak to quantify, mostly under pKd 3.1 to 4
Conditions: plain residues with an end cap or a label only (N-terminal biotin on a linker: ado-ado)

Row | Binder | pKd
1 | B1 | below the threshold

Molecular target: HTRA1, Q92743
Experiment: holdup assay
Design: key: below the threshold = too weak to quantify, mostly under pKd 3.1 to 4
Conditions: plain residues with an end cap or a label only (N-terminal biotin on a linker: ado-ado)

HTRA1, Q92743, sequence (Q92743 360-477): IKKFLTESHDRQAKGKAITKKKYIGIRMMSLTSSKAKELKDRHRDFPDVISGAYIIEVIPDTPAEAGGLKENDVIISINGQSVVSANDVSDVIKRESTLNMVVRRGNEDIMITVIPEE

Row | Binder | pKd
2 | B1 | 4.51

Molecular target: GORASP2, Q9H8Y8
Experiment: holdup assay
Design: key: below the threshold = too weak to quantify, mostly under pKd 3.1 to 4
Conditions: plain residues with an end cap or a label only (N-terminal biotin on a linker: ado-ado)

Row | Binder | pKd
3 | B1 | 3.88

Molecular target: T2, GRIP1_2, Q9Y3R0
T2 sequence (Q9Y3R0 145-248, limits assumed, looked up): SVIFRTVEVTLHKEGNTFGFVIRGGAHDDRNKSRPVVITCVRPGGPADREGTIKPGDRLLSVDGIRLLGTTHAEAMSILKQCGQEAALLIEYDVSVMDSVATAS
Experiment: holdup assay
Design: key: below the threshold = too weak to quantify, mostly under pKd 3.1 to 4
Conditions: plain residues with an end cap or a label only (N-terminal biotin on a linker: ado-ado)

Row | Binder | pKd
4 | B1 | below the threshold

Molecular target: T3, PCLO, Q9Y6V0
T3 sequence (Q9Y6V0 4491-4600, limits assumed, looked up): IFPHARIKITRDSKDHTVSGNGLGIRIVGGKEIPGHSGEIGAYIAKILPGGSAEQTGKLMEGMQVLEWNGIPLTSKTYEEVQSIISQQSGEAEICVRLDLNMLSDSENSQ
Experiment: holdup assay
Design: key: below the threshold = too weak to quantify, mostly under pKd 3.1 to 4
Conditions: plain residues with an end cap or a label only (N-terminal biotin on a linker: ado-ado)

Row | Binder | pKd
5 | B1 | below the threshold

Molecular target: SCRIB_3, Q14160
Experiment: holdup assay
Design: key: below the threshold = too weak to quantify, mostly under pKd 3.1 to 4
Conditions: plain residues with an end cap or a label only (N-terminal biotin on a linker: ado-ado)

SCRIB_3, Q14160, sequence (Q14160 999-1103): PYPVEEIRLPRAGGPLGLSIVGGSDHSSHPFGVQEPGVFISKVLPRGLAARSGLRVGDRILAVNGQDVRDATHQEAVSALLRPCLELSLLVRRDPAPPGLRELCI

Row | Binder | pKd
6 | B1 | 3.86

Molecular target: HTRA2, O43464
Experiment: holdup assay
Design: key: below the threshold = too weak to quantify, mostly under pKd 3.1 to 4
Conditions: plain residues with an end cap or a label only (N-terminal biotin on a linker: ado-ado)

HTRA2, O43464, sequence (O43464 355-458): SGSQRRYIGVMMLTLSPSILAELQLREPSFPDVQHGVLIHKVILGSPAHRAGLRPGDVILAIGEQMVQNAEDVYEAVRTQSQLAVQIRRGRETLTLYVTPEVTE

Row | Binder | pKd
7 | B1 | below the threshold

Molecular target: Inadl_8, Q8NI35
Experiment: holdup assay
Design: key: below the threshold = too weak to quantify, mostly under pKd 3.1 to 4
Conditions: plain residues with an end cap or a label only (N-terminal biotin on a linker: ado-ado)

Inadl_8, Q8NI35, sequence (Q8NI35 1425-1530): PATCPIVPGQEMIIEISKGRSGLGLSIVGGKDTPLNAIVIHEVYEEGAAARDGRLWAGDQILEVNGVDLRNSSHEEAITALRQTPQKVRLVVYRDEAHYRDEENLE

Row | Binder | pKd
8 | B1 | 3.85

Molecular target: T4, SNTG1, Q9NSN8
T4 sequence (Q9NSN8 52-150, limits assumed, looked up): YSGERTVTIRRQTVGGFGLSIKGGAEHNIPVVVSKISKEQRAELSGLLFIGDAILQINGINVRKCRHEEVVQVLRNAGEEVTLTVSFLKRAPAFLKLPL
Experiment: holdup assay
Design: key: below the threshold = too weak to quantify, mostly under pKd 3.1 to 4
Conditions: plain residues with an end cap or a label only (N-terminal biotin on a linker: ado-ado)

Row | Binder | pKd
9 | B1 | 4.72

Molecular target: T5, FRMPD1, Q5SYB0
T5 sequence (Q5SYB0 52-145, limits assumed, looked up): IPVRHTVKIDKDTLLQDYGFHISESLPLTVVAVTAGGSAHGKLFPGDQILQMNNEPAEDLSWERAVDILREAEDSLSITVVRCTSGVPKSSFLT
Experiment: holdup assay
Design: key: below the threshold = too weak to quantify, mostly under pKd 3.1 to 4
Conditions: plain residues with an end cap or a label only (N-terminal biotin on a linker: ado-ado)

Row | Binder | pKd
10 | B1 | below the threshold

Molecular target: T6, DLG3_2, Q92796
T6 sequence (Q92796 221-321, limits assumed, looked up): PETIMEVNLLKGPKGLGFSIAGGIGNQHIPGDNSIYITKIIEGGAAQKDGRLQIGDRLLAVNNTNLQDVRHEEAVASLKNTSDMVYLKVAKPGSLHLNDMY
Experiment: holdup assay
Design: key: below the threshold = too weak to quantify, mostly under pKd 3.1 to 4
Conditions: plain residues with an end cap or a label only (N-terminal biotin on a linker: ado-ado)

Row | Binder | pKd
11 | B1 | 4.57

Molecular target: IL16_4, Q14005
Experiment: holdup assay
Design: key: below the threshold = too weak to quantify, mostly under pKd 3.1 to 4
Conditions: plain residues with an end cap or a label only (N-terminal biotin on a linker: ado-ado)

IL16_4, Q14005, sequence (Q14005 1229-1329): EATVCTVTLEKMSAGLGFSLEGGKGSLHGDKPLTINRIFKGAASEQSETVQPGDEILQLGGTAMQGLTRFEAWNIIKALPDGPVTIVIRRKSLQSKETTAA

Row | Binder | pKd
12 | B1 | below the threshold

Molecular target: NHERF4_1, Q86UT5-2
Experiment: holdup assay
Design: key: below the threshold = too weak to quantify, mostly under pKd 3.1 to 4
Conditions: plain residues with an end cap or a label only (N-terminal biotin on a linker: ado-ado)

NHERF4_1, Q86UT5-2, sequence (Q86UT5 other isoform, or with tags, fused parts or gaps): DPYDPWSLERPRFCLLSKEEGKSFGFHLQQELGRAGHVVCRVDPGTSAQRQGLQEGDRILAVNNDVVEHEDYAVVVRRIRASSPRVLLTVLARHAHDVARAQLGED

Row | Binder | pKd
13 | B1 | below the threshold

Molecular target: LNX1_3, Q8TBB1
Experiment: holdup assay
Design: key: below the threshold = too weak to quantify, mostly under pKd 3.1 to 4
Conditions: plain residues with an end cap or a label only (N-terminal biotin on a linker: ado-ado)

LNX1_3, Q8TBB1, sequence (Q8TBB1 500-596): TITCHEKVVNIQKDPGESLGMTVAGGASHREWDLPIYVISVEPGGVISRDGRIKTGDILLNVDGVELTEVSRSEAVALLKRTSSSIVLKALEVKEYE

Row | Binder | pKd
14 | B1 | below the threshold

Molecular target: PDLIM1, O00151
Experiment: holdup assay
Design: key: below the threshold = too weak to quantify, mostly under pKd 3.1 to 4
Conditions: plain residues with an end cap or a label only (N-terminal biotin on a linker: ado-ado)

PDLIM1, O00151, sequence (O00151 1-87): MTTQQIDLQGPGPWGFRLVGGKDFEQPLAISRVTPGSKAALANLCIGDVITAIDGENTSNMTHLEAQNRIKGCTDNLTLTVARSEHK

Row | Binder | pKd
15 | B1 | below the threshold

Molecular target: T7, DVL3, Q92997
T7 sequence (Q92997 244-331, limits assumed, looked up): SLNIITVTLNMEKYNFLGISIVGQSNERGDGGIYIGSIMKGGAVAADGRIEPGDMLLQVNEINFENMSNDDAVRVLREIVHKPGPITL
Experiment: holdup assay
Design: key: below the threshold = too weak to quantify, mostly under pKd 3.1 to 4
Conditions: plain residues with an end cap or a label only (N-terminal biotin on a linker: ado-ado)

Row | Binder | pKd
16 | B1 | below the threshold

Molecular target: T8, PDZRN3_1, Q9UPQ7
T8 sequence (Q9UPQ7 244-349, limits assumed, looked up): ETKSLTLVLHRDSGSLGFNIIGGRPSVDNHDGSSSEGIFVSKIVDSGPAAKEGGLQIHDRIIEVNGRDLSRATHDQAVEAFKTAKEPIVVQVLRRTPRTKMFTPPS
Experiment: holdup assay
Design: key: below the threshold = too weak to quantify, mostly under pKd 3.1 to 4
Conditions: plain residues with an end cap or a label only (N-terminal biotin on a linker: ado-ado)

Row | Binder | pKd
17 | B1 | 3.91

Molecular target: TJP1_3, Q07157
Experiment: holdup assay
Design: key: below the threshold = too weak to quantify, mostly under pKd 3.1 to 4
Conditions: plain residues with an end cap or a label only (N-terminal biotin on a linker: ado-ado)

TJP1_3, Q07157, sequence (Q07157 416-512): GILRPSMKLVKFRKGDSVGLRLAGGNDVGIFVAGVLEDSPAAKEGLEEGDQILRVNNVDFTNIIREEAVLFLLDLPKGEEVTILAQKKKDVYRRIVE

Row | Binder | pKd
18 | B1 | below the threshold

Molecular target: T9, MPP6, Q9NZW5
T9 sequence (Q9NZW5 125-219, limits assumed, looked up): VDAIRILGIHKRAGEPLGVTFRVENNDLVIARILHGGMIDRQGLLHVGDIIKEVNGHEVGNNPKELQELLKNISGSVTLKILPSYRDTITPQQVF
Experiment: holdup assay
Design: key: below the threshold = too weak to quantify, mostly under pKd 3.1 to 4
Conditions: plain residues with an end cap or a label only (N-terminal biotin on a linker: ado-ado)

Row | Binder | pKd
19 | B1 | below the threshold

Molecular target: LAP2, Q96RT1
Experiment: holdup assay
Design: key: below the threshold = too weak to quantify, mostly under pKd 3.1 to 4
Conditions: plain residues with an end cap or a label only (N-terminal biotin on a linker: ado-ado)

LAP2, Q96RT1, sequence (Q96RT1 other isoform, or with tags, fused parts or gaps): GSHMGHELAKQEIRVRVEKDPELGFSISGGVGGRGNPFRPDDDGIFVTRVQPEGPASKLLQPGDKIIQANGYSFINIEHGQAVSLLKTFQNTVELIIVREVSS

Row | Binder | pKd
20 | B1 | below the threshold

Molecular target: FRMPD2_2, Q68DX3
Experiment: holdup assay
Design: key: below the threshold = too weak to quantify, mostly under pKd 3.1 to 4
Conditions: plain residues with an end cap or a label only (N-terminal biotin on a linker: ado-ado)

FRMPD2_2, Q68DX3, sequence (Q68DX3 944-1038): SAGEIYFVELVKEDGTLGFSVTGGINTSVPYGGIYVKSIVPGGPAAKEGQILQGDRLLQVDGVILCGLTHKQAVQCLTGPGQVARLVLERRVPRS

Row | Binder | pKd
21 | B1 | 3.76

Molecular target: GRID2IP_1, A4D2P6
Experiment: holdup assay
Design: key: below the threshold = too weak to quantify, mostly under pKd 3.1 to 4
Conditions: plain residues with an end cap or a label only (N-terminal biotin on a linker: ado-ado)

GRID2IP_1, A4D2P6, sequence (A4D2P6 1-87): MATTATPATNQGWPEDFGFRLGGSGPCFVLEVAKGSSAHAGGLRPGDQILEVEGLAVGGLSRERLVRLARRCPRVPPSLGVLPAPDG

Row | Binder | pKd
22 | B1 | below the threshold

Molecular target: T10, DLG3_1, Q92796
T10 sequence (Q92796 125-227, limits assumed, looked up): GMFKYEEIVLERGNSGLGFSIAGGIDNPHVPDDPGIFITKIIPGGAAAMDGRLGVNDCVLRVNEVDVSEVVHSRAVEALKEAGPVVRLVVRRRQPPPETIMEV
Experiment: holdup assay
Design: key: below the threshold = too weak to quantify, mostly under pKd 3.1 to 4
Conditions: plain residues with an end cap or a label only (N-terminal biotin on a linker: ado-ado)

Row | Binder | pKd
23 | B1 | 3.9

Molecular target: T11, LIN7B, Q9HAP6
T11 sequence (Q9HAP6 88-185, limits assumed, looked up): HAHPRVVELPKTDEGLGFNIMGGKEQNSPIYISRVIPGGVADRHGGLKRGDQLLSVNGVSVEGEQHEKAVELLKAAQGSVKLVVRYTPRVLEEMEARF
Experiment: holdup assay
Design: key: below the threshold = too weak to quantify, mostly under pKd 3.1 to 4
Conditions: plain residues with an end cap or a label only (N-terminal biotin on a linker: ado-ado)

Row | Binder | pKd
24 | B1 | below the threshold

Molecular target: T12, LIN7A, O14910
T12 sequence (O14910 103-200, limits assumed, looked up): T11 sequence (Q9HAP6 88-185, limits assumed, looked up) with A2S, I20V, V35I, D42E, Q65H, Q77K, G78D, R89K
Experiment: holdup assay
Design: key: below the threshold = too weak to quantify, mostly under pKd 3.1 to 4
Conditions: plain residues with an end cap or a label only (N-terminal biotin on a linker: ado-ado)

Row | Binder | pKd
25 | B1 | below the threshold

Molecular target: ARHGEF12, Q9NZN5-2
Experiment: holdup assay
Design: key: below the threshold = too weak to quantify, mostly under pKd 3.1 to 4
Conditions: plain residues with an end cap or a label only (N-terminal biotin on a linker: ado-ado)

ARHGEF12, Q9NZN5-2, sequence (Q9NZN5 other isoform, or with tags, fused parts or gaps): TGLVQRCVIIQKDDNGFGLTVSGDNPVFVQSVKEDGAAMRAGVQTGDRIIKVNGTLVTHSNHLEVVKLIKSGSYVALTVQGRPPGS

Row | Binder | pKd
26 | B1 | below the threshold
